Reference: patent US20210340276A1 (Astellas, published 2021)
Read-outs that look alike come from different tables or passages of the source.

Key:
Test in all cases: ELISA, MUC1 peptide immobilized on 384-well plate, HRP anti-human Igκ detection, luminescence
[1] = biological target: T1, Human cancer-specific MUC1 peptide (PTL 1) (human)
T1 construct: Immobilized at 0.5 µmol/L per well on a 384-well ELISA plate
Protocol: (§1) Human cancer-specific MUC1 peptide (PTL 1) was immobilized at 0.5 μmol/L per well onto a 384-well ELISA plate. The resultant was reacted with each anti-human MUC1 antibody Fab fragment conjugate described above (sample No. 5, 6, 7, or 3) and then reacted with a horseradish peroxidase-labeled goat anti-human Igκ antibody (Southern Biotechnology Associates, Inc.) as a secondary antibody. ECL Prime Western Blotting Detection Reagent (GE Healthcare Japan Corp.) was added thereto for luminescence, and the degree of the luminescence was examined.
(§2) Likewise, binding activity evaluation was also conducted as to the anti-human MUC1 antibody Fab fragment conjugates given below.

[2] = biological target: T1, Human cancer-specific MUC1 peptide (PTL …); remark: listed apart in the source
Protocol: as §1

[3] = biological target: T1, Human cancer-specific MUC1 peptide (PTL …); remark: listed apart in the source
Protocol: as §1, §2

B1: P10-2 Fab (Fab, V domains shown)
VH: QVQLVQSGAEVKKPGASVKVSCKASGYTFTNYGLSWVRQAPGQGLEWMGENHPGSGIIYHNEKFRGRVTLTADRSTSTAYMELSSLRSEDTAVYYCARSSGTRGFDYWGQGTLVTVSS
VL: DVVMTQTPLSLSVTPGQPASISCRSSQSIVHSNGNTYLEWYLQKPGQSPQLLIYRVSNRFSGVPDRFSGSGSGTDFTLKISRVEAEDVGVYYCFQGSHGPWTFGQGTKLEIKR
modifications: heavy chain N-terminal glutamine modified into pyroglutamic acid in a great majority of purified antibodies (Example 2)
notes: expressed in Expi293F cells, purified with KappaSelect; also called anti-human MUC1 antibody Fab fragment P10-2
In the case of B1, the EC50 [1] is reported as 0.17 nM, the EC50 [2] is reported as 0.23 nM and the EC50 [3] is reported as 0.16 nM.
